US20220143136A1, “USE OF ANNEXINS IN PREVENTING AND TREATING MUSCLE MEMBRANE INJURY” (NORTHWESTERN UNIVERSITY, priority 2018, published 2022)

Tests used:
Sgcg-null mice = assay: Chronic injury, short-term chronic dosing and serum biomarker analysis; assay type: in vivo, mouse; details: for serum creatine kinase (CK) at day 14: 1 mg/kg once every three days for 14 days, vs PBS control
Protocol: Chronic Injury and biomarker analysis. […] Mice were injected once every 3 days for a period of 12 days. Serum was acquired as previously described (Demonbreun et al 2016a). Serum CK was analyzed for each mouse using the EnzyChrom Creatine Kinase Assay (catalog ECPK-100, BioAssay Systems) following the manufacturer's instructions. Lactate dehydrogenase was analyzed for each mouse using (LDH cytotoxicity kit MK401, Takara) following the manufacturer's instructions.
Serum collection and CK analysis.
Short-term chronic dosing regimen. […] An additional cohort of Sgcg-null mice had blood drawn as described above immediately prior to the first protein injection. Then, 1 mg/kg recombinant annexin A6 or annexin A2 (both produced by Northwestern's Protein Production Core) was injected into the right retro-orbital cavity of sedated mice, once every 3 days for a total of 5 injections and then blood drawn on day 14 post initial injection.

wildtype myofibers = assay: Ca2+-dependency of recombinant annexin A6 protection, FM 1-43 uptake after laser injury; assay type: cell-based, mouse; details: 20 μg/ml rANXA6 pretreatment, 0 mM Ca2+ + EGTA compared with 1 mM Ca2+
Protocol: Multiphoton laser injury and imaging. Fibers were subjected to laser-induced damage at room temperature using the Nikon A1R-MP multiphoton microscope. Imaging was performed using a 25×1.1 NA objective directed by the NIS-Elements AR imaging software. Green fluorescence protein (GFP) and FM 4-64 were excited using a 920 nm wavelength laser and emission wavelengths of 575 nm and 629 nm were collected respectively. To induce laser damage on isolated myofibers, a diffraction limited spot (diameter approximately 410 nm) was created on the lateral membrane of the myofiber using a 920 nm wavelength laser at 10-15% laser power for 1 s. Time lapse images were collected as follows: one image was collected prior to damage, one image upon damage, then every 8 seconds for 80 seconds (10 images) followed by every 30 seconds for 5 minutes (10 images). At the end of the time lapsed image series, z-stack images were collected at 250 nm intervals through the damaged site on the myofiber directed by the NIS-Elements AR imaging software. The multiphoton was used to acquire data presented in FIG. 5, FIG. 10D and FIG. 19.
For recombinant protein calcium studies, myofibers were isolated from wildtype mice as described above. […] Images were acquired and quantitated as described above. FM 1-43 fluorescence over time was measured using FIJI and plotted overtime as F/F0.

wildtype mice = assay: Cardiotoxin injury, systemic retro-orbital recombinant annexin A6, Evan's blue dye uptake; assay type: in vivo, mouse; details: vs vehicle; for decrease in Evan's blue dye uptake, fluorescence imaging of tibialis anterior: 1 mg/kg retro-orbital 2 hours before cardiotoxin, 3 hours post injury
Protocol: Cardiotoxin Injury and analysis. […] Additionally, mice were injected intraperitoneally with Evans' blue dye at 5 μl/g body weight (E-2129; Sigma-Aldrich, St. Louis, Mo.) dissolved in phosphate-buffered saline at 10 mg/mL. […] Cardiotoxin injury was performed injecting 20 μl of a 10 μM cardiotoxin (discontinued, Sigma-Aldrich) solution in PBS in tibialis muscles in sedated animals (3% isoflurane, 0.8 l/min O2) 2 hours post pretreatment. Cardiotoxin was released down the midline of the muscle to induce a homogenous area of injury at the center of the muscle. 3 hours post cardiotoxin injection muscle was harvested and frozen in liquid nitrogen.
Immunofluorescence microscopy. Sections (10 μm thick) from the center of frozen-embedded muscles were collected on the cryostat (chamber, −20° C.; sample, −15° C.; catalog number CM1950; Leica, Wetzlar, Germany) for immunostaining. Tissues were fixed with 4% paraformaldehyde for 10 minutes on ice. Block and permeabilization were with 0.1% Triton (catalog number X-100; Sigma-Aldrich), 10% fetal bovine serum, and PBS for 60 minutes. For dystrophin detection, anti-dystrophin (ab15277; Abcam, Cambridge, Mass.) was used at a dilution of 1:100 overnight at 4° C. Sections were PBS rinsed, incubated with secondary antibody goat anti rabbit (A11008, Invitrogen) for 1 hour, PBS rinsed, and mounted in vectashield with DAPI (H-1200, Vector Laboratories). Imaging was performed using a Zeiss Axio Observer A1 microscope (Zeiss, Oberkochen, Germany), using a 10× objective. ZEN software (Zeiss, Jena, Germany) was used for acquiring images. Fluorescence quantitation and muscle area were performed using FIJI (NIH). Surface plots were created in FIJI (NIH). Fluorescence volume was quantified using Imaris Software v9.1.2.
Cardiotoxin Injury and analysis. […] Additionally, mice were injected with Evans' blue dye at 5 μl/g body weight (E-2129; Sigma-Aldrich, St. Louis, Mo.) dissolved in phosphate-buffered saline at 10 mg/mL cardiotoxin injury was performed injecting 20 μl of a 10 μM cardiotoxin solution in PBS in tibialis anterior or gastroc/soleus muscles in sedated animals (3% isoflurane, 0.8 l/min O2) 2 hours post pretreatment. Cardiotoxin was released down the midline of the muscle to induce a homogenous area of injury at the center of the muscle. 3 hours post cardiotoxin injection muscle was harvested.
Evans blue dye uptake. Sections (10 μm thick) from the center of frozen-embedded muscles were collected on the cryostat (chamber, −20° C.; sample, −15° C.; catalog number CM1950; Leica, Wetzlar, Germany). Tissue sections were fixed with methanol for 2 minutes, rinsed and mounted with vectashield with DAPI (H-1200, Vector Laboratories). Imaging was performed using a Zeiss Axio Observer A1 microscope (Zeiss, Oberkochen, Germany), using a 10× objective. ZEN software (Zeiss, Jena, Germany) was used for acquiring images. Fluorescence quantitation, surface plots, and muscle area were performed using FIJI (NIH). For whole tissue dye quantification, whole tissue was dissected, finely minced, weighed, and incubated at 55° C. in 1 mL of formamide for 2 hours. Spectrophotometric absorbance was measured at 620 nm.

[1] = 1 mg/kg retro-orbital once every 3 days for 12 days, vs control

B1: recombinant annexin A6: recombinant human annexin A6 protein with C-terminal HIS tag (5186-A6-050, R&D systems); mouse protein from Northwestern core in one cohort (protein, UniProt P08133 2-673, looked up)
Annexin A6: AKPAQGAKYRGSIHDFPGFDPNQDAEALYTAMKGFGSDKEAILDIITSRSNRQRQEVCQSYKSLYGKDLIADLKYELTGKFERLIVGLMRPPAYCDAKEIKDAISGIGTDEKCLIEILASRTNEQMHQLVAAYKDAYERDLEADIIGDTSGHFQKMLVVLLQGTREEDDVVSEDLVQQDVQDLYEAGELKWGTDEAQFIYILGNRSKQHLRLVFDEYLKTTGKPIEASIRGELSGDFEKLMLAVVKCIRSTPEYFAERLFKAMKGLGTRDNTLIRIMVSRSELDMLDIREIFRTKYEKSLYSMIKNDTSGEYKKTLLKLSGGDDDAAGQFFPEAAQVAYQMWELSAVARVELKGTVRPANDFNPDADAKALRKAMKGLGTDEDTIIDIITHRSNVQRQQIRQTFKSHFGRDLMTDLKSEISGDLARLILGLMMPPAHYDAKQLKKAMEGAGTDEKALIEILATRTNAEIRAINEAYKEDYHKSLEDALSSDTSGHFRRILISLATGHREEGGENLDQAREDAQVAAEILEIADTPSGDKTSLETRFMTILCTRSYPHLRRVFQEFIKMTNYDVEHTIKKEMSGDVRDAFVAIVQSVKNKPLFFADKLYKSMKGAGTDEKTLTRIMVSRSEIDLLNIRREFIEKYDKSLHQAIEGDTSGDFLKALLALCGGED
modifications: C-terminal His tag
notes: recombinant human annexin A6 protein with C-terminal HIS tag (5186-A6-050, R&D systems); mouse protein from Northwestern core in one cohort
serum CK fold change post/pretreatment (Day 14/Day 0) (Sgcg-null mice; 1 mg/kg every 3 days for 14 days, compared to recombinant annexin A2, proteins from Northwestern's Protein Production Core): significantly reduced
serum creatine kinase (CK) at day 14 (Sgcg-null mice): significantly decreased
serum creatine kinase (CK) at day 14 (Sgcg-null mice; listed as rANXA6): lower
serum creatine kinase (CK) (Sgcg-null mice; [1]): reduced
serum lactate dehydrogenase (LDH) (Sgcg-null mice; [1]): reduced
histology of gastrocnemius/soleus muscle (Sgcg-null mice; 14-day dosing, vs PBS): qualitatively less injury
FM 1-43 fluorescence accumulation at the lesion over time (F/F0) (wildtype myofibers): significantly increased
FM 1-43 fluorescence accumulation at the lesion over time (F/F0) (wildtype myofibers; listed as rANXA6): significantly reduced at 1 mM
decrease in Evan's blue dye uptake, fluorescence imaging of tibialis anterior (wildtype mice): 38%
decrease in Evan's blue dye uptake, fluorescence imaging of tibialis anterior (wildtype mice; listed as rANXA6): approximately 38%
reduction in dye uptake, whole tissue spectroscopic analysis of gastrocnemius/soleus (wildtype mice; 1 mg/kg retro-orbital pretreatment): 58%
Evan's blue dye uptake, fluorescence imaging (wildtype mice; retro-orbital post-treatment immediately after cardiotoxin): significant decrease
Evan's blue dye uptake, fluorescence imaging (wildtype mice; retro-orbital pretreatment 2 hours prior to cardiotoxin): significant decrease
